Laboratory results as given in publication PMC6424611.

How the values were obtained:
Conditions in all cases: reference: unphosphorylated peptide; sites S732
PDZD7 PDZ domain 3 = PDZD7 PDZ domain 3 (UniProt Q9H5P4); experiment: SPR, biotin-peptide on streptavidin chip
MAST1 PDZ domain = MAST1 PDZ domain (UniProt Q9Y2H9); experiment: SPR, biotin-peptide on streptavidin chip
ARHGEF12 PDZ domain = ARHGEF12 PDZ domain (UniProt Q9NZN5); experiment: SPR, biotin-peptide on streptavidin chip
MAST2 PDZ domain = MAST2 PDZ domain (UniProt Q6P0Q8); experiment: SPR, biotin-peptide on streptavidin chip
GOPC PDZ domain = GOPC PDZ domain (UniProt Q9HD26); experiment: SPR, biotin-peptide on streptavidin chip
DFNB31 PDZ domain 3 = DFNB31 PDZ domain 3 (UniProt Q9P202); experiment: automated holdup, biotin-peptide resin
SHANK3 PDZ domain = SHANK3 PDZ domain (UniProt Q9BYB0); experiment: automated holdup, biotin-peptide resin
PPP1R9A PDZ domain = PPP1R9A PDZ domain (UniProt Q9ULJ8); experiment: automated holdup, biotin-peptide resin
LNX1 PDZ domain 3 = LNX1 PDZ domain 3 (UniProt Q8TBB1); experiment: automated holdup, biotin-peptide resin
Sequence of LNX1 PDZ domain 3 (Q8TBB1 whole entry, looked up, the tested form may be a part): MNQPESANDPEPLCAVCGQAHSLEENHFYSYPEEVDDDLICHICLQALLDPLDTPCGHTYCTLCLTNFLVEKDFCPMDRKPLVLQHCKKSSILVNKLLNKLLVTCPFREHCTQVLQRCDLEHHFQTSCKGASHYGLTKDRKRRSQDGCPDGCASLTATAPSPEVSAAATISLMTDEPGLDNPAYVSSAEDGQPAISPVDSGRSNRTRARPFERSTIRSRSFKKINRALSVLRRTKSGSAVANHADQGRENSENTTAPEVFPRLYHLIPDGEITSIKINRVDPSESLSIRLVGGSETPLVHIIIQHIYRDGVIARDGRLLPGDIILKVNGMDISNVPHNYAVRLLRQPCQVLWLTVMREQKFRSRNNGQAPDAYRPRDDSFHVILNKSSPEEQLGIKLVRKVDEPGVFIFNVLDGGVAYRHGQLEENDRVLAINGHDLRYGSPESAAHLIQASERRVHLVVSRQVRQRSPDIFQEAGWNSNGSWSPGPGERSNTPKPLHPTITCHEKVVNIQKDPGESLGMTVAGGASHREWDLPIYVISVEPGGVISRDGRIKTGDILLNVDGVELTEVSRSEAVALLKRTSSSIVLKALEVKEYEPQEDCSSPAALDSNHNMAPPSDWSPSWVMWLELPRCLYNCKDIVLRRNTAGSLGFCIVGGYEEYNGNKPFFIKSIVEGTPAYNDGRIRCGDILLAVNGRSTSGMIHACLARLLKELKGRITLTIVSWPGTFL

GORASP1 PDZ domain = GORASP1 PDZ domain (UniProt Q9BQQ3); experiment: automated holdup, biotin-peptide resin
MAGI1 PDZ domain 2 = MAGI1 PDZ domain 2 (UniProt Q96QZ7); experiment: automated holdup, biotin-peptide resin
PTPN3 PDZ domain = PTPN3 PDZ domain (UniProt P26045); experiment: automated holdup, biotin-peptide resin
ARHGEF11 PDZ domain = ARHGEF11 PDZ domain (UniProt O15085); experiment: automated holdup, biotin-peptide resin
GORASP2 PDZ domain = GORASP2 PDZ domain (UniProt Q9H8Y8); experiment: automated holdup, biotin-peptide resin
SHROOM2 PDZ domain = SHROOM2 PDZ domain (UniProt Q13796); experiment: automated holdup, biotin-peptide resin
NHERF2 PDZ domain 2 = NHERF2 PDZ domain 2 (UniProt Q15599); experiment: automated holdup, biotin-peptide resin
DLG4 PDZ domain 2 = DLG4 PDZ domain 2 (UniProt P78352); experiment: automated holdup, biotin-peptide resin
GRID2IP PDZ domain 1 = GRID2IP PDZ domain 1 (UniProt A4D2P6); experiment: automated holdup, biotin-peptide resin
Sequence of GRID2IP PDZ domain 1 (A4D2P6 whole entry, looked up, the tested form may be a part): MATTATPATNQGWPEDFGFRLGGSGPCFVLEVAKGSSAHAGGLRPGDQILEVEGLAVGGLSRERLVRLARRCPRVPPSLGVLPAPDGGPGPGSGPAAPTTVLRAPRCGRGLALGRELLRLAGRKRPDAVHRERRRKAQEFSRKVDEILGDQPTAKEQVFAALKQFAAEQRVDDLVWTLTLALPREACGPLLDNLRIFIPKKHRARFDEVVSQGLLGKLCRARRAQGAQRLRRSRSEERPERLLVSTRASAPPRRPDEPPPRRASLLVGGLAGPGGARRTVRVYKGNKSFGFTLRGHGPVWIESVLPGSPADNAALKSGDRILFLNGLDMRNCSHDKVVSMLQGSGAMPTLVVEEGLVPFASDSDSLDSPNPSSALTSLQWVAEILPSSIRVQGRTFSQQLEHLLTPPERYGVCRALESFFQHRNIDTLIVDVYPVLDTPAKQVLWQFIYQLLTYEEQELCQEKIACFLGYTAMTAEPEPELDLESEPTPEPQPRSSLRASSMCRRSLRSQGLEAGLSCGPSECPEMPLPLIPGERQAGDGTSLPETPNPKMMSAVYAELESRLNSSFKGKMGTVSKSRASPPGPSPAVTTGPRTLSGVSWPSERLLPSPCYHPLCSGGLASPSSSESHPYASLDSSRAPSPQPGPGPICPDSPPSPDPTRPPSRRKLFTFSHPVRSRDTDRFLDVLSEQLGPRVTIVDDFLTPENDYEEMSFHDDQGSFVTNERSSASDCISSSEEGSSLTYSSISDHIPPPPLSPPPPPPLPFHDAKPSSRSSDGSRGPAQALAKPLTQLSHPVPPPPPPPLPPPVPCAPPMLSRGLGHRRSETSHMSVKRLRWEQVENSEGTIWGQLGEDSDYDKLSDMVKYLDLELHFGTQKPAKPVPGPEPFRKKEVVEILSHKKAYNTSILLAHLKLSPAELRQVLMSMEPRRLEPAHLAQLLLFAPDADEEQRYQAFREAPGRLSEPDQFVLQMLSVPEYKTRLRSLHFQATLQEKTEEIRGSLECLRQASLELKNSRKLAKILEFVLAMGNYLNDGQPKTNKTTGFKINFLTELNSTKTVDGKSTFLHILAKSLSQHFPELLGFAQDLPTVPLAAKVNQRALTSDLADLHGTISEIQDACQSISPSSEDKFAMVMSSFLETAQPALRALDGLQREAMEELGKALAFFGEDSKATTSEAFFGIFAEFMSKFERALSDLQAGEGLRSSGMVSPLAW

HTRA1 PDZ domain = HTRA1 PDZ domain (UniProt Q92743); experiment: automated holdup, biotin-peptide resin
NHERF3 PDZ domain 1 = NHERF3 PDZ domain 1 (UniProt Q5T2W1); experiment: automated holdup, biotin-peptide resin
PDZRN3 PDZ domain 1 = PDZRN3 PDZ domain 1 (UniProt Q9UPQ7); experiment: automated holdup, biotin-peptide resin
GRASP PDZ domain = GRASP PDZ domain (UniProt Q7Z6J2); experiment: automated holdup, biotin-peptide resin
MAGI3 PDZ domain 2 = MAGI3 PDZ domain 2 (UniProt Q5TCQ9); experiment: automated holdup, biotin-peptide resin
LIMK2 PDZ domain = LIMK2 PDZ domain (UniProt P53671); experiment: automated holdup, biotin-peptide resin
LAP2 PDZ domain = LAP2 PDZ domain (UniProt Q96RT1); experiment: automated holdup, biotin-peptide resin
MAGI2 PDZ domain 2 = MAGI2 PDZ domain 2 (UniProt Q86UL8); experiment: automated holdup, biotin-peptide resin
Sequence of MAGI2 PDZ domain 2 (Q86UL8 whole entry, looked up, the tested form may be a part): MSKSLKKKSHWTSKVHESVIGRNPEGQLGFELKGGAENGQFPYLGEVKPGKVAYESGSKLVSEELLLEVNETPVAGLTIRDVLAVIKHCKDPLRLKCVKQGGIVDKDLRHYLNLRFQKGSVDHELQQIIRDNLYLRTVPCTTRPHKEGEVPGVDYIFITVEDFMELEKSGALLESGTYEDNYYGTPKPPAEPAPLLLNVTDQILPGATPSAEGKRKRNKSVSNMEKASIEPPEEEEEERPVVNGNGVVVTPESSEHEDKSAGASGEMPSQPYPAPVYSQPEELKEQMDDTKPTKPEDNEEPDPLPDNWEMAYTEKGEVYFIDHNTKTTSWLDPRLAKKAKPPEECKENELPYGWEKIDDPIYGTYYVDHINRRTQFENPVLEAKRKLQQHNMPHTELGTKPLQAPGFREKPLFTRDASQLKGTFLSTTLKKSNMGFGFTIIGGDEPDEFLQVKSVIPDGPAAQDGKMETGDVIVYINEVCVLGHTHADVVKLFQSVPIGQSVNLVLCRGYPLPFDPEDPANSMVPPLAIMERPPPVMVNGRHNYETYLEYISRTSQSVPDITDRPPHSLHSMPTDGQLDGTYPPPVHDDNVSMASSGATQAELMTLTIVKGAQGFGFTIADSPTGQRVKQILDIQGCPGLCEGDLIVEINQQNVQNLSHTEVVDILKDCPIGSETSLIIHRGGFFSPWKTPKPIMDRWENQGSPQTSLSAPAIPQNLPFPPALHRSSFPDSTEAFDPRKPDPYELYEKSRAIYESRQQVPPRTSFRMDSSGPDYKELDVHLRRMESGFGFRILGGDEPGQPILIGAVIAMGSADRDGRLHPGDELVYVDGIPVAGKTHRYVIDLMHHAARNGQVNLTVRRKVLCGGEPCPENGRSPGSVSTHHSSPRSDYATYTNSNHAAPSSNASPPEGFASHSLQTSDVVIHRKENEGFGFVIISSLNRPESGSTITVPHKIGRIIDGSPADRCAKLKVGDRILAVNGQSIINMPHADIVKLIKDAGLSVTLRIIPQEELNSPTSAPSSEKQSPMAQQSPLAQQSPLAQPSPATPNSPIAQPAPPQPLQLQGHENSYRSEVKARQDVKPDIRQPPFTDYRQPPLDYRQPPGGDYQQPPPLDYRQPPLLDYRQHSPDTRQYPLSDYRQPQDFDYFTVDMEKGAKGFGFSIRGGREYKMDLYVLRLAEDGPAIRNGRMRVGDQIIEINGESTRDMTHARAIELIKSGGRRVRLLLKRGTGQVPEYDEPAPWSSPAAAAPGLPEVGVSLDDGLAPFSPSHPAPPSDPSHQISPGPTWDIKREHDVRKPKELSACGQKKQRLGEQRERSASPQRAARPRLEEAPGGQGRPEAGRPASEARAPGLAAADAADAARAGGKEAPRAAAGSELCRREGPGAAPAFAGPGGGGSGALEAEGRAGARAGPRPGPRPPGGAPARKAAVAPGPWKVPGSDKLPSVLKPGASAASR

Sequence of MAST1 PDZ domain (Q9Y2H9 whole entry, looked up, the tested form may be a part): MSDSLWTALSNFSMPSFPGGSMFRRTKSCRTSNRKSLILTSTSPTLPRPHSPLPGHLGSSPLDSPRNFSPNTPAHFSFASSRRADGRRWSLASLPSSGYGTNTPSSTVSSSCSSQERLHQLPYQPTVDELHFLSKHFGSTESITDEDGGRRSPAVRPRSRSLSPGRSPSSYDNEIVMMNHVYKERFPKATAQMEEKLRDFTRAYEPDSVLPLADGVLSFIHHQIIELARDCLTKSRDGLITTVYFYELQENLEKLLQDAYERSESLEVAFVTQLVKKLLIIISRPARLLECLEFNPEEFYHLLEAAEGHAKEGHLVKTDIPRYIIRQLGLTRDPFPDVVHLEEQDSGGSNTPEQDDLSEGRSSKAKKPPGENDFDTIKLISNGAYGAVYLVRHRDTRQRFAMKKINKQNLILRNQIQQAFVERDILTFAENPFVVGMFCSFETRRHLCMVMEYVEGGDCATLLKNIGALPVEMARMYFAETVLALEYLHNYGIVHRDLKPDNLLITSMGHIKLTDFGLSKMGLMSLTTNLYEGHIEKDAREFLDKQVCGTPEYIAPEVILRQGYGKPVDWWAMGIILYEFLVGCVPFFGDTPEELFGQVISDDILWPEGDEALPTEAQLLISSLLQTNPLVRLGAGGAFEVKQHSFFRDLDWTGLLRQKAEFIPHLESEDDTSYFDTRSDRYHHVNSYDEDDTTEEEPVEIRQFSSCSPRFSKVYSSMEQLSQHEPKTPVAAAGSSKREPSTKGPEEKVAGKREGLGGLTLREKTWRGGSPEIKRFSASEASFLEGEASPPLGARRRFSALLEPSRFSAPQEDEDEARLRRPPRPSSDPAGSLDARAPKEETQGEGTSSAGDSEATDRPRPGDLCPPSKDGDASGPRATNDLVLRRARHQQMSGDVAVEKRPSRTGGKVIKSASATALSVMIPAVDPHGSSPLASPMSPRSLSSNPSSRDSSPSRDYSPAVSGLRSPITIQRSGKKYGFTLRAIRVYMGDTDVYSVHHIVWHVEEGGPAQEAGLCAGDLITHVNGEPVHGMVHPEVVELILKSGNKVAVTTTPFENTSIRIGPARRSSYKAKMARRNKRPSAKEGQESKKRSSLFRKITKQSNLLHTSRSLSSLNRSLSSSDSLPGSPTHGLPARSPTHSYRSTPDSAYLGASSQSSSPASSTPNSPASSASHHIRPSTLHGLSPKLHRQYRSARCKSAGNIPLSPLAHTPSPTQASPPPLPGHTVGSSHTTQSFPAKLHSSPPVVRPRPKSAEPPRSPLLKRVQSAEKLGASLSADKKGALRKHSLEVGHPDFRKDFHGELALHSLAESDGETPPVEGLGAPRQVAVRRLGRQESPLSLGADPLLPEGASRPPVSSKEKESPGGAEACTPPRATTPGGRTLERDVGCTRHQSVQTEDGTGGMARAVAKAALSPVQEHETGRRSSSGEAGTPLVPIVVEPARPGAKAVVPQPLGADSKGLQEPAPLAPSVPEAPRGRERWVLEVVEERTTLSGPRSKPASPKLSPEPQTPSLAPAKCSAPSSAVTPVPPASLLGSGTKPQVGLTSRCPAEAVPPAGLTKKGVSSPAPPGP

RSK1 (ribosomal S6 kinase 1) 725-735 (from UniProt Q15418) pS732 peptide
KD (PDZD7 PDZ domain 3): weaker; reference 6.2 ± 0.9 | KD (MAST1 PDZ domain): weaker; reference 20 ± 1 | KD (ARHGEF12 PDZ domain): lost; reference 2.79 ± 0.11 | KD (MAST2 PDZ domain): weaker; reference 7.02 ± 0.27 | KD (GOPC PDZ domain): weaker; reference 8.92 ± 0.44 | other: holdup binding intensity (BI) (DFNB31 PDZ domain 3): lost; reference 0.23 ± 0.04 | other: holdup binding intensity (BI) (SHANK3 PDZ domain): lost; reference 0.27 ± 0.03 | other: holdup binding intensity (BI) (PPP1R9A PDZ domain): gained; reference 0.00 ± 0.02 | other: holdup binding intensity (BI) (LNX1 PDZ domain 3): gained; reference 0.04 ± 0.02 | other: holdup binding intensity (BI) (GORASP1 PDZ domain): gained; reference 0.01 ± 0.02 | other: holdup binding intensity (BI) (MAGI1 PDZ domain 2): weaker; reference 0.43 ± 0.02 | other: holdup binding intensity (BI) (PTPN3 PDZ domain): gained; reference 0.05 ± 0.02 | other: holdup binding intensity (BI) (ARHGEF11 PDZ domain): lost; reference 0.28 ± 0.06 | other: holdup binding intensity (BI) (GORASP2 PDZ domain): weaker; reference 0.41 ± 0.02 | other: holdup binding intensity (BI) (SHROOM2 PDZ domain): gained; reference 0.00 ± 0.01 | other: holdup binding intensity (BI) (NHERF2 PDZ domain 2): lost; reference 0.20 ± 0.04 | other: holdup binding intensity (BI) (DLG4 PDZ domain 2): gained; reference 0.11 ± 0.03 | other: holdup binding intensity (BI) (GRID2IP PDZ domain 1): gained; reference 0.06 ± 0.02 | other: holdup binding intensity (BI) (HTRA1 PDZ domain): weaker; reference 0.44 ± 0.03 | other: holdup binding intensity (BI) (NHERF3 PDZ domain 1): lost; reference 0.41 ± 0.01 | other: holdup binding intensity (BI) (PDZRN3 PDZ domain 1): stronger; reference 0.26 ± 0.01 | other: holdup binding intensity (BI) (GRASP PDZ domain): lost; reference 0.29 ± 0.01 | other: holdup binding intensity (BI) (MAGI3 PDZ domain 2): same; reference 0.28 ± 0.03 | other: holdup binding intensity (BI) (LIMK2 PDZ domain): gained; reference 0.01 ± 0.06 | other: holdup binding intensity (BI) (LAP2 PDZ domain): gained; reference −0.02 ± 0.05 | other: holdup binding intensity (BI) (MAGI2 PDZ domain 2): weaker; reference 0.42 ± 0.01
